According to PMC3923656 (Journal of cellular biochemistry, 2009):

Target: T1, GST-Hoxa1-993 (mouse, UniProt P09022 1-331)
T1 sequence (looked up): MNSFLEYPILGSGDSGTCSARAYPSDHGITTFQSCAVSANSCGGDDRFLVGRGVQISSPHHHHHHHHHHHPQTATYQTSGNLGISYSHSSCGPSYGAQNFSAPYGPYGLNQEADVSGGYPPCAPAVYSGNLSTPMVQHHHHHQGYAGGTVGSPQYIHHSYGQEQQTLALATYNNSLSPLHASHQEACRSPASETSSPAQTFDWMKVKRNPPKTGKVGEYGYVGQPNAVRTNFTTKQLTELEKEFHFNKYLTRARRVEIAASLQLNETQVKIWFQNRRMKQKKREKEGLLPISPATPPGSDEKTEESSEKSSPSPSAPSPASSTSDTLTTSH
Test: pull-down

B1: Hoxa1-399, [35S]-labeled, in vitro translated (natural protein, mouse, UniProt P09022-2 1-133, looked up)
chain: MNSFLEYPILGSGDSGTCSARAYPSDHGITTFQSCAVSANSCGGDDRFLVGRGVQISSPHHHHHHHHHHHPQTATYQTSGNLGISYSHSSCGPSYGAQNFSAPYGPYGLNQEADPPRSLSFPCFRDVFSSADL
modifications: [35S]-cysteine radiolabel
In the case of B1, the “fold bound over GST alone” value is reported as 8 fold.
